Measurements reported in patent publication US20220332846A1 (Innovent, published 2022).

Target: T1, PCSK-9 in human serum samples (human, UniProt Q8NBP7 31-692, limits assumed)
T1 construct: Endogenous PCSK-9 in clinical serum of human subjects, detected with a goat anti-human PCSK-9 polyclonal antibody; also called proprotein convertase subtilisin/kexin type 9; serum free PCSK-9
Experiment: ELISA, ADI-10087 coated on a microplate, serum PCSK-9 captured, detected with goat anti-human PCSK-9 polyclonal antibody
Description: A corresponding TMB substrate of HRP enzyme was then added, the color intensity of the TMB substrate was proportional to the content of PCSK-9, and the concentration of PCSK-9 in clinical serum could be detected by OD values at 450 nm or 620 nm using a microplate reader.

T1 sequence (Q8NBP7 31-692 limits assumed): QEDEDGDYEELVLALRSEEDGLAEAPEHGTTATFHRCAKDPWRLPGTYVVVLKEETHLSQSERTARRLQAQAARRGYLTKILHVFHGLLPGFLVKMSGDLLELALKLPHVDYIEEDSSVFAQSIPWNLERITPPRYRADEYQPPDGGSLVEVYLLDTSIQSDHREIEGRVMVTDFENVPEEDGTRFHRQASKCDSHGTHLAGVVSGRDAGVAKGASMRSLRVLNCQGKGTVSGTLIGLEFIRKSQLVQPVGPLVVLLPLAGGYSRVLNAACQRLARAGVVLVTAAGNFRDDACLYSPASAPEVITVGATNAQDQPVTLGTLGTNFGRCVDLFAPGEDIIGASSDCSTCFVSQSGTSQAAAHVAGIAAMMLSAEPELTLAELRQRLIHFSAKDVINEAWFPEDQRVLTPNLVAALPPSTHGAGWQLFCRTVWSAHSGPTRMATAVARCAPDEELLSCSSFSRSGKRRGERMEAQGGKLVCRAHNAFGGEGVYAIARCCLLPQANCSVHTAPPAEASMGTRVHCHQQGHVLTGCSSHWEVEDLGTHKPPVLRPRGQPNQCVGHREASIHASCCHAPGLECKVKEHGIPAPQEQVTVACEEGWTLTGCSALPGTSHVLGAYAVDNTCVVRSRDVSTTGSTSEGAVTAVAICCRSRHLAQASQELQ

B1: ADI-10087 (antibody, V domains shown)
VH: QLQLQESGPGLVKPSETLSLTCTVSGGSISSASYYWSWIRQPPGKGLEWIGSINYRGSTYYNPSLKSRVTISVDTSKNQFSLKLSSVTAADTAVYYCARENSGVVPAAGPNWFGPWGQGTLVTVSS
VL: EIVLTQSPATLSLSPGERATLSCRASQSVSSYLAWYQQKPGQAPRLLIYDASNRATGIPARFSGSGSGTDFTLTISSLEPEDFAVYYCQQRRNWFTFGGGTKVEIKR
modifications: In Example 10 the antibody carries a ruthenium label, and in Example 9 biotin and ruthenium labels. The labelling sites are not stated and the letters do not carry them.
notes: The antibody was obtained from PCT/CN2017/118050; also called anti-PCSK9 antibody; test drug
B1: binds.
